We go through 1 molecule from US11344504 (MODERNATX, dated 2022).

The target in this assay is T1, OX40 receptor on mouse CD4+ T-cells (mouse, UniProt P47741 20-272).
T1 sequence (looked up): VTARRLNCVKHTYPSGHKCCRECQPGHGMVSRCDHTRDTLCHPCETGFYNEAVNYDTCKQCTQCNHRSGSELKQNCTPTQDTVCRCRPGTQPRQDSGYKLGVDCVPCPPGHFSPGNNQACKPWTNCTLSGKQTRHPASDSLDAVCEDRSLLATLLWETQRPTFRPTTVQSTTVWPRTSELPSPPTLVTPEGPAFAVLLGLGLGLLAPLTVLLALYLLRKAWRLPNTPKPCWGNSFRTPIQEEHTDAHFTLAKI
The experiment in a line: cell-based or functional assay.

B1: murine OX40L polypeptide expressed on the surface of B16F10 cells treated with mOX40L_miR-122 mRNA (ligand)
chain: MEGEGVQPLDENLENGSRPRFKWKKTLRLVVSGIKGAGMLLCFIYVCLQLSSSPAKDPPIQRLRGAVTRCEDGQLFISSYKNEYQTMEVQNNSVVIKCDGLYIIYLKGSFFQEVKIDLHFREDHNPISIPMLNDGRRIVFTVVASLAFKDKVYLTVNAPDTLCEHLQINDGELIVVQLTPGYCAPEGSYHSTVNQVPL
For the molecule B1, the “mouse IL-2 production by CD4+ T-cells co-cultured with OX40L-expressing B16F10 cells, fold over control (mock treated or non-translated mRNA)” value is roughly 2 fold.
